# Laboratory results from article PMC3375900.
# Target: Hrs (rat (endogenous in rat brain cytosol)) (UniProt Q9JJ50)
# Assay: co-IP
# UniProt Q9JJ50, sequence (Q9JJ50 whole entry): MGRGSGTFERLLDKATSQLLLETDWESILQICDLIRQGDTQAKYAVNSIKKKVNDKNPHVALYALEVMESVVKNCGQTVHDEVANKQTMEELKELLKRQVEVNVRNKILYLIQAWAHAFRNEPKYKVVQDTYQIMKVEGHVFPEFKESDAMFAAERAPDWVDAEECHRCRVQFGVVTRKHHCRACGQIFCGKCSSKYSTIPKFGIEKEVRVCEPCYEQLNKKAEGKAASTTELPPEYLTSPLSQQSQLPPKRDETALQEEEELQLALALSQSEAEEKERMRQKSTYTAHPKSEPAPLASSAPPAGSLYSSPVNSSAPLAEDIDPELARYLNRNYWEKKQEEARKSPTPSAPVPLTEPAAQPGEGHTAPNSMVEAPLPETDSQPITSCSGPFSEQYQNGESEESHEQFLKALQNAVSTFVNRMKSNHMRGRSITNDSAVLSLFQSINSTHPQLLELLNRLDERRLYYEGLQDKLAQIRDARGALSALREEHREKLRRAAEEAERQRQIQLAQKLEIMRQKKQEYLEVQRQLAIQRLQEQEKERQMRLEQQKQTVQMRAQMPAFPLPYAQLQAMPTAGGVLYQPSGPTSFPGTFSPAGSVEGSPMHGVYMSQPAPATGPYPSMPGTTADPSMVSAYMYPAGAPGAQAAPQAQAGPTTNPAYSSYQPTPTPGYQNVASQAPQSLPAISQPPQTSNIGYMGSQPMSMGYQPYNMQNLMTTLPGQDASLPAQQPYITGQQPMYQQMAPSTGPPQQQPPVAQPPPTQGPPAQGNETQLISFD
substance,measurement,value
signal-transducing adaptor molecule (STAM) (from UniProt Q5XHY7 1-523) (natural protein),percent of STAM remaining in the cytosol after immunodepletion of Hrs,16.5%
